This assay has as its target C-antigen (human). The assay can be described thus: cell-fixed ELISA, tumor cell lines.

The source of these data is patent publication US20030021779A1.

B1: H11-scFv (scFv)
scFv: DIVLTQSPGTLSLSPGERATLSCRASQSVSSSYLAWYQQKPGQAPRLLIYGASTRATGMPDRFSGSGSGTDFTLTISRLEPEDFAVYYCQQYGSSPQTPQITFGGGTKVEIKRTVAAPSVSGGGGSGGGGSGGGGSQVQLVESGGGVVQPGRSLRLSCAASGFPFRSFAMHWVRQALGKGLEWVAVISYDGSTKYYADSVKGRFTISRDTSKNTVYLKMNSLRTEDTAVYYCARDQSLLGDYDHYYGLDVWGKGTTVTVSSGSEQKLISEEDLNHHHHH
B1: the fold greater affinity than the control (BGA scFv) is 8 to 50 fold.
